Data published in patent US20230174575A1 (priority 2020, published 2023).

Columns and labels:
Vero cells = experiment: Cell toxicity against Vero cells by MTT assay; conditions: MTT assay
Method: Cell toxicity was monitored by establishing the effect of lysozyme HCl against Vero cells (epithelial cells of monkey kidneys). The cells were seeded in 96-well plates at the concentration of 1×10^4 cells/well. 24 hours after seeding, the cells were treated with serial dilutions of lysozyme HCl or chloroquine (as control), in a final volume of 200 in triplicate. After 72 hours' incubation at 37° C. with 5% CO2, cell viability was measured by MTT assay (D'Alessandro, M. et al., Differential effects on angiogenesis of two antimalarial compounds, dihydroartemisinin and artemisone: Implications for embryotoxicity, Toxicology. 241 (2007) 66-74. Doi: 10.1016/j.tox.2007.08.084).
The data were calculated as percentage cell viability using the formula:
[(absorbance of sample−blank of cell-free sample)/mean absorbance of control of media]×100.
The cytotoxicity of ovotransferrin and chloroquine (CQ) was measured by MTT assay, similarly to the method used for lysozyme HCl.

SARS-CoV-2 = assay type: cell-based; conditions: concentrations ranging from 10 mg/ml to 1.25 mg/ml

B1: Ovotransferrin: hen egg white protein, product code 501P2001090, produced by Bioseutica BV (protein, UniProt P02789 20-705, looked up)
Ovotransferrin: APPKSVIRWCTISSPEEKKCNNLRDLTQQERISLTCVQKATYLDCIKAIANNEADAISLDGGQAFEAGLAPYKLKPIAAEVYEHTEGSTTSYYAVAVVKKGTEFTVNDLQGKTSCHTGLGRSAGWNIPIGTLLHRGAIEWEGIESGSVEQAVAKFFSASCVPGATIEQKLCRQCKGDPKTKCARNAPYSGYSGAFHCLKDGKGDVAFVKHTTVNENAPDQKDEYELLCLDGSRQPVDNYKTCNWARVAAHAVVARDDNKVEDIWSFLSKAQSDFGVDTKSDFHLFGPPGKKDPVLKDLLFKDSAIMLKRVPSLMDSQLYLGFEYYSAIQSMRKDQLTPSPRENRIQWCAVGKDEKSKCDRWSVVSNGDVECTVVDETKDCIIKIMKGEADAVALDGGLVYTAGVCGLVPVMAERYDDESQCSKTDERPASYFAVAVARKDSNVNWNNLKGKKSCHTAVGRTAGWVIPMGLIHNRTGTCNFDEYFSEGCAPGSPPNSRLCQLCQGSGGIPPEKCVASSHEKYFGYTGALRCLVEKGDVAFIQHSTVEENTGGKNKADWAKNLQMDDFELLCTDGRRANVMDYRECNLAEVPTHAVVVRPEKANKIRDLLERQEKRFGVNGSEKSKFMMFESQNKDLLFKDLTKCLFKVREGTTYKEFLGDKFYTVISSLKTCNPSDILQMCSFLEGK
- viability compared with control cells (Vero cells; 10 mg/ml): 100%
- cytotoxicity (Vero cells; maximum concentration used (10 mg/ml)): non-toxic
- antiviral activity of ovotransferrin alone (SARS-CoV-2): no antiviral activity was detected
